Source: patent publication US20190055510A1, “WELL PLATE-BASED PERFUSION CULTURE MODEL OF ENDOSTEAL-EXTRACELLULAR MATRIX (ECM)-AND ENDOTHELIAL-MYELOMA INTERACTIONS AND METHODS FOR TESTING PERSONALIZED THERAPEUTICS FOR MULTIPLE MYELOMA” (Hackensack University Medical Center, priority 2016, published 2019)

Experiments:
Format in all cases: cell-based, human
[1] = test system: CD138+ PMMCs; assay: Drug response of CD138+ PMMCs co-cultured with osteoblast (OSB) tissue in 96-well plate-based perfusion culture, viability by flow cytometry; conditions: cultured with OSBs
Description: Using the 96-well plate-based culture platform described in Example 2, osteoblasts (OSBs) (hFOB 1.19 cell line) were cultured for 4 days at 20% O2 tension to form an ossified tissue structure. Patient bone marrow mononuclear cells (BMMCs) containing PMMCs, were seeded on the ossified tissue structure and cultured for up to 5 weeks. […] When O2 tension was decreased to 1%, the proliferation rate of PMMCs decreased (FIG. 2C) while their viability was not compromised (data not shown). […] PMMCs also acquired cell adhesion mediated drug resistance (CAM-DR) due to the adhesive interactions with OSBs.
The response of PMMCs to two commonly used drugs to treat MM patients: (1) carfilzomib, a proteasome inhibitor; and (2) melphalan, which is often used to treat newly diagnosed MM patients along with stem-cell transplantation, was evaluated. OSB tissue was cultured for 4 days either at 1 or 20% O2 prior to seeding of PMMCs. After seeding, PMMC-OSB cultures were dosed with either carfilizomib or melphalan. After 24 h, flow cytometry was used to analyze the viability of CD138+PMMCs. […] Dual Inhibition Of Mcl-1 By The Combination Of Carfilzomib and TG02 In Multiple Myeloma, (2013)). […] British journal of haematology 152, 579-592, doi:10.1111/j.1365-2141.2010.08533.x. (2011); Xiang, Y. et al. Monitoring a Nuclear Factor-κB Signature of Drug Resistance in Multiple Myeloma. […]

[2] = test system: CD138+ PMMCs; assay: Drug response of CD138+ PMMCs cultured in fibrin; conditions: in contrast to culture with OSBs (FIG. 3B)
Description: The response of PMMCs to two commonly used drugs to treat MM patients: (1) carfilzomib, a proteasome inhibitor; and (2) melphalan, which is often used to treat newly diagnosed MM patients along with stem-cell transplantation, was evaluated. OSB tissue was cultured for 4 days either at 1 or 20% O2 prior to seeding of PMMCs. After seeding, PMMC-OSB cultures were dosed with either carfilizomib or melphalan. After 24 h, flow cytometry was used to analyze the viability of CD138+PMMCs. […] Dual Inhibition Of Mcl-1 By The Combination Of Carfilzomib and TG02 In Multiple Myeloma, (2013)). […] British journal of haematology 152, 579-592, doi:10.1111/j.1365-2141.2010.08533.x. (2011); Xiang, Y. et al. Monitoring a Nuclear Factor-κB Signature of Drug Resistance in Multiple Myeloma. Molecular & Cellular Proteomics 10, doi:10.1074/mcp.M110.005520 (2011)).
In this study, fibrin was used to reconstruct extracellular matrix (ECM) niche tissue containing patient bone marrow mononuclear cells (BMMCs). […]

[3] = test system: 3D-osteocytes (OSTs); assay: Continuous PTH treatment of 3D-reconstructed osteocytes, relative gene expression; conditions: 50 nM PTH for 2 days, compared to no treatment and 2D-OSTs controls (FIG. 4F)
Text: Cells and biphasic calcium phosphate (BCP) or polystyrene (PS) microbeads in the range of 20-25 μm (i.e, 20 μm, 21 μm, 22 μm, 23 μm, 24 μm and 25 μm) in diameter were assembled into the culture chamber, via forced liquid withdrawal through the PC membrane, to form a close-packed structure (FIG. 1). […] The cells entrapped within the interstitial spaces between the microbeads formed a 3D cellular network by extending and connecting their processes through openings between the microbeads over 2 weeks. […] The observed O2 tension effects are similar to those reported on the osteocytic differentiation of OSBs (Hirao, M. et al. Oxygen tension is an important mediator of the transformation of osteoblasts to osteocytes. Journal of bone and mineral metabolism 25, 266-276, doi:10.1007/s00774-007-0765-9 (2007); Chen, D. et al. HIF-1alpha inhibits Wnt signaling pathway by activating Sost expression in osteoblasts. PloS one 8, e65940, doi:10.1371/journal.pone.0065940 (2013); Clinkenbeard, E. L. et al. Neonatal iron deficiency causes abnormal phosphate metabolism by elevating FGF23 in normal and ADHR mice. Journal of bone and mineral research: the official journal of the American Society for Bone and Mineral Research 29, 361-369, doi:10.1002/jbmr.2049 (2014)).
In order to characterize the regulatory functions of 3D-osteocytes (OSTs) on osteoclastogenesis and osteoblastic development, the effects of continuous parathyroid hormone (PTH) treatment was evaluated.

CC(C)C[C@H](NC(=O)[C@H](CCc1ccccc1)NC(=O)CN1CCOCC1)C(=O)N[C@@H](Cc1ccccc1)C(=O)N[C@@H](CC(C)C)C(=O)[C@@]1(C)CO1 [carfilzomib]
response (viability) of CD138+ PMMCs to carfilzomib ([1]; 100 nM carfilzomib, 20% O2, 24 h, flow cytometry (FIG. 3A)): significant resistance

N[C@@H](Cc1ccc(N(CCCl)CCCl)cc1)C(=O)O [melphalan]
response (viability) of CD138+ PMMCs to melphalan ([1]; 100 μM melphalan, both 1 and 20% O2, 24 h, flow cytometry (FIG. 3B)): highly resistant | sensitivity of CD138+ PMMCs to melphalan [2]: significantly more sensitive

B1: parathyroid hormone (protein, UniProt P01270 32-115, looked up)
Parathyroid hormone: SVSEIQLMHNLGKHLNSMERVEWLRKKLQDVHNFVALGAPLAPRDAGSQRPRKKEDNVLVESHEKSLGEADKADVNVLTKAKSQ
modifications: Parathyroid hormone
notes: parathyroid hormone, known to induce OSTs to increase RANKL and decrease OPG and SOST gene expression
FGF23 gene expression [3]: decreased | OPG gene expression [3]: decreased | RANKL gene expression [3]: increased | SOST gene expression [3]: decreased
